Consider five molecules from patent publication US20050158818A1, “Cephalosporin C acylases” (ANTIBIOTICOS S.p.A., priority 2004, published 2005).

Data set [1] can be described thus: Acylase kinetics, hydrolysis of cephalosporin C (7-ACA determined at 415 nm with p-dimethylaminobenzaldehyde). The format is biochemical. Particulars: substrate Cef C; for Km: 0.1 M phosphate buffer pH 8.0, 37° C.; for Vmax (U/mg): 0.1 M phosphate buffer pH 8.0, 37° C. (converted in units at 25° C.); for Inhibition after: substrate concentration after which inhibition is seen. On the procedure: (§1) Kinetics parameters of the mutants and HisVAC acylase were determined measuring the hydrolysis of cephalosporin C or glutaryl 7-ACA in 0.1 M phosphate buffer solution, pH 8.0 at 37° C. (then converted in units at 25° C.). The amount of 7-ACA is determined spectrophotometrically, using a standard curve, measuring the yellow intensity at 415 nm (Schiff base), resulting upon reaction with p-dimethylaminobenzaldehyde, using modified Bulasingham method (Biochem. Biophys. Acta 276, 250, 1972).
(§2) One acylase unit is the amount of enzyme (in solution or immobilized) which, under the assay conditions, produces one micromole of 7-ACA/minute.

A short description of data set [2]: Acylase kinetics, hydrolysis of glutaryl 7-ACA (7-ACA determined at 415 nm with p-dimethylaminobenzaldehyde). The format is biochemical. As to conditions: substrate Gl-7-ACA; for Km: 0.1 M phosphate buffer pH 8.0, 37° C.; for Vmax (U/mg): 0.1 M phosphate buffer pH 8.0, 37° C. (converted in units at 25° C.); for Inhibition after: substrate concentration after which inhibition is seen. The method, then: as §1, §2

B1: H296F: HisVAC mutant, histidine 296 replaced with Phe (protein)
chain: MTMAANTDRAVLQAALPPLSGSLPIPGLSASVRVRRDAWGIPHIKASGEADAYRALGFVHSQDRLFQMELTRRKALGRAAEWLGAEAAEADILVRRLGMEKVCRRDFEALGVEAKDMLRAYVAGVNAFLASGAPLPVEYGLLGAEPEPWEPWHSIAVMRRLGLLMGSVWFKLWRMLALPVVGAANALKLRYDDGGRDLLCIPPGAEADRLEADLATLRPAVDALLKAMGGDASDAAGGGSNNWAVAPGRTATGRPILAGDPHRVFEIPGFYAQHHLACDRFDMIGLTVPGVPGFPFFAHNGKVAYCVTHAFMDIHDLYLEQFAGEGRTARFGNDFEPVAWSRDRIAVRGGADREFDIVETRHGPVIAGDPRDGAALTLRSVQFAETDLSFDCLTRMPGASTVAQLYDATRGWGLIDHNLVAGDVAGSIGHLVRARVPSRPRENGWLPVPGWSGEHEWRGWIPHEAMPRVIDPPGGIIVTANNRVVADDHPDYLCTDCHPPYRAERIMKRLVANPAFAVDDAAAIHADTLSPHVGLLRRRLEALGARDDSAAEGLRQMLVAWDGRMDAASEVASAYNAFRRALTRLVTDRSGLEQAISHPFAAVAPGVSPQGQVWWAVPTLLRDDDAGMLKGWSWDQALSEALSVASQNLTGRSWGEEHRPRFTHPLATQFPAWAGLLNPASRPIGGDGDTVLANGLVPSAGPQATYGALSRYVFDVGNWDNSRWVVFHGASGHPASAHYADQNAPWSDCAMVPMLYSWDRIAAEAVTSQELVPALEHHHHHH
As a reminder, the Km is the concentration of substrate that gives half-maximal velocity. With B1, in data set [1], the Km worked out at 4.1 mM, the “Vmax (U/mg)” value is 0.05 U/mg and the Inhibition after was found to be 60 mM. Moreover, in data set [2], the Km amounted to 1.9 mM, the “Vmax (U/mg)” value was 1.7 U/mg and the Inhibition after is 50 mM.

B2: D416Y: HisVAC mutant, aspartic acid 416 replaced with Tyr (protein)
chain: MTMAANTDRAVLQAALPPLSGSLPIPGLSASVRVRRDAWGIPHIKASGEADAYRALGFVHSQDRLFQMELTRRKALGRAAEWLGAEAAEADILVRRLGMEKVCRRDFEALGVEAKDMLRAYVAGVNAFLASGAPLPVEYGLLGAEPEPWEPWHSIAVMRRLGLLMGSVWFKLWRMLALPVVGAANALKLRYDDGGRDLLCIPPGAEADRLEADLATLRPAVDALLKAMGGDASDAAGGGSNNWAVAPGRTATGRPILAGDPHRVFEIPGFYAQHHLACDRFDMIGLTVPGVPGFPHFAHNGKVAYCVTHAFMDIHDLYLEQFAGEGRTARFGNDFEPVAWSRDRIAVRGGADREFDIVETRHGPVIAGDPRDGAALTLRSVQFAETDLSFDCLTRMPGASTVAQLYDATRGWGLIYHNLVAGDVAGSIGHLVRARVPSRPRENGWLPVPGWSGEHEWRGWIPHEAMPRVIDPPGGIIVTANNRVVADDHPDYLCTDCHPPYRAERIMKRLVANPAFAVDDAAAIHADTLSPHVGLLRRRLEALGARDDSAAEGLRQMLVAWDGRMDAASEVASAYNAFRRALTRLVTDRSGLEQAISHPFAAVAPGVSPQGQVWWAVPTLLRDDDAGMLKGWSWDQALSEALSVASQNLTGRSWGEEHRPRFTHPLATQFPAWAGLLNPASRPIGGDGDTVLANGLVPSAGPQATYGALSRYVFDVGNWDNSRWVVFHGASGHPASAHYADQNAPWSDCAMVPMLYSWDRIAAEAVTSQELVPALEHHHHHH
B2: in data set [1], the Km was 7.2 mM and the “Vmax (U/mg)” value is recorded as 0.66 U/mg. In addition, in data set [2], the Km was 1.75 mM, the “Vmax (U/mg)” value was determined as 4.9 U/mg and the Inhibition after was found to be 25 mM.

B3: H417Y: HisVAC mutant, histidine 417 replaced with Tyr (protein)
chain: MTMAANTDRAVLQAALPPLSGSLPIPGLSASVRVRRDAWGIPHIKASGEADAYRALGFVHSQDRLFQMELTRRKALGRAAEWLGAEAAEADILVRRLGMEKVCRRDFEALGVEAKDMLRAYVAGVNAFLASGAPLPVEYGLLGAEPEPWEPWHSIAVMRRLGLLMGSVWFKLWRMLALPVVGAANALKLRYDDGGRDLLCIPPGAEADRLEADLATLRPAVDALLKAMGGDASDAAGGGSNNWAVAPGRTATGRPILAGDPHRVFEIPGFYAQHHLACDRFDMIGLTVPGVPGFPHFAHNGKVAYCVTHAFMDIHDLYLEQFAGEGRTARFGNDFEPVAWSRDRIAVRGGADREFDIVETRHGPVIAGDPRDGAALTLRSVQFAETDLSFDCLTRMPGASTVAQLYDATRGWGLIDYNLVAGDVAGSIGHLVRARVPSRPRENGWLPVPGWSGEHEWRGWIPHEAMPRVIDPPGGIIVTANNRVVADDHPDYLCTDCHPPYRAERIMKRLVANPAFAVDDAAAIHADTLSPHVGLLRRRLEALGARDDSAAEGLRQMLVAWDGRMDAASEVASAYNAFRRALTRLVTDRSGLEQAISHPFAAVAPGVSPQGQVWWAVPTLLRDDDAGMLKGWSWDQALSEALSVASQNLTGRSWGEEHRPRFTHPLATQFPAWAGLLNPASRPIGGDGDTVLANGLVPSAGPQATYGALSRYVFDVGNWDNSRWVVFHGASGHPASAHYADQNAPWSDCAMVPMLYSWDRIAAEAVTSQELVPALEHHHHHH
As for B3, in data set [1], the Km worked out at 12.3 mM, the “Vmax (U/mg)” value amounted to 0.05 U/mg and the Inhibition after is 50 mM. In data set [2], the Km was found to be 4.3 mM and the “Vmax (U/mg)” value is reported as 14.8 U/mg.

B4: A215Y-H296S: HisVAC double mutant, alanine 215 replaced with Tyr and histidine 296 replaced with Ser (protein)
chain: MTMAANTDRAVLQAALPPLSGSLPIPGLSASVRVRRDAWGIPHIKASGEADAYRALGFVHSQDRLFQMELTRRKALGRAAEWLGAEAAEADILVRRLGMEKVCRRDFEALGVEAKDMLRAYVAGVNAFLASGAPLPVEYGLLGAEPEPWEPWHSIAVMRRLGLLMGSVWFKLWRMLALPVVGAANALKLRYDDGGRDLLCIPPGAEADRLEADLYTLRPAVDALLKAMGGDASDAAGGGSNNWAVAPGRTATGRPILAGDPHRVFEIPGFYAQHHLACDRFDMIGLTVPGVPGFPSFAHNGKVAYCVTHAFMDIHDLYLEQFAGEGRTARFGNDFEPVAWSRDRIAVRGGADREFDIVETRHGPVIAGDPRDGAALTLRSVQFAETDLSFDCLTRMPGASTVAQLYDATRGWGLIDHNLVAGDVAGSIGHLVRARVPSRPRENGWLPVPGWSGEHEWRGWIPHEAMPRVIDPPGGIIVTANNRVVADDHPDYLCTDCHPPYRAERIMKRLVANPAFAVDDAAAIHADTLSPHVGLLRRRLEALGARDDSAAEGLRQMLVAWDGRMDAASEVASAYNAFRRALTRLVTDRSGLEQAISHPFAAVAPGVSPQGQVWWAVPTLLRDDDAGMLKGWSWDQALSEALSVASQNLTGRSWGEEHRPRFTHPLATQFPAWAGLLNPASRPIGGDGDTVLANGLVPSAGPQATYGALSRYVFDVGNWDNSRWVVFHGASGHPASAHYADQNAPWSDCAMVPMLYSWDRIAAEAVTSQELVPALEHHHHHH
Regarding B4, in data set [1], the Km came out at 10 mM, the “Vmax (U/mg)” value came to 0.66 U/mg and the Inhibition after is listed as 40 mM. In data set [2], the Km stood at 4 mM, the “Vmax (U/mg)” value is 2.2 U/mg and the Inhibition after was 25 mM.

B5: D416Y-H417Y: HisVAC double mutant, aspartic acid 416 and histidine 417 replaced with Tyr (protein)
chain: MTMAANTDRAVLQAALPPLSGSLPIPGLSASVRVRRDAWGIPHIKASGEADAYRALGFVHSQDRLFQMELTRRKALGRAAEWLGAEAAEADILVRRLGMEKVCRRDFEALGVEAKDMLRAYVAGVNAFLASGAPLPVEYGLLGAEPEPWEPWHSIAVMRRLGLLMGSVWFKLWRMLALPVVGAANALKLRYDDGGRDLLCIPPGAEADRLEADLATLRPAVDALLKAMGGDASDAAGGGSNNWAVAPGRTATGRPILAGDPHRVFEIPGFYAQHHLACDRFDMIGLTVPGVPGFPHFAHNGKVAYCVTHAFMDIHDLYLEQFAGEGRTARFGNDFEPVAWSRDRIAVRGGADREFDIVETRHGPVIAGDPRDGAALTLRSVQFAETDLSFDCLTRMPGASTVAQLYDATRGWGLIYYNLVAGDVAGSIGHLVRARVPSRPRENGWLPVPGWSGEHEWRGWIPHEAMPRVIDPPGGIIVTANNRVVADDHPDYLCTDCHPPYRAERIMKRLVANPAFAVDDAAAIHADTLSPHVGLLRRRLEALGARDDSAAEGLRQMLVAWDGRMDAASEVASAYNAFRRALTRLVTDRSGLEQAISHPFAAVAPGVSPQGQVWWAVPTLLRDDDAGMLKGWSWDQALSEALSVASQNLTGRSWGEEHRPRFTHPLATQFPAWAGLLNPASRPIGGDGDTVLANGLVPSAGPQATYGALSRYVFDVGNWDNSRWVVFHGASGHPASAHYADQNAPWSDCAMVPMLYSWDRIAAEAVTSQELVPALEHHHHHH
For B5, in data set [1], the Km stood at 13.1 mM, the “Vmax (U/mg)” value was 4.2 U/mg and the Inhibition after amounted to 50 mM. Further, in data set [2], the Km turned out to be 9 mM, the “Vmax (U/mg)” value is listed as 1.2 U/mg and the Inhibition after is recorded as 12.5 mM.
